{"source": "paper PMC6872149", "about": "“Protein:Protein interactions in the cytoplasmic membrane apparently influencing sugar transport and phosphorylation activities of the e. coli phosphotransferase system” (PLoS ONE, 2019)", "molecular_target": "MtlA (mannitol PTS Enzyme IIC-IIB-IIA) fused to the T25 domain (pKNT25-mtlA) (E. coli, UniProt P00550 1-637)", "sequence (P00550 whole entry, the tested form may be a part)": "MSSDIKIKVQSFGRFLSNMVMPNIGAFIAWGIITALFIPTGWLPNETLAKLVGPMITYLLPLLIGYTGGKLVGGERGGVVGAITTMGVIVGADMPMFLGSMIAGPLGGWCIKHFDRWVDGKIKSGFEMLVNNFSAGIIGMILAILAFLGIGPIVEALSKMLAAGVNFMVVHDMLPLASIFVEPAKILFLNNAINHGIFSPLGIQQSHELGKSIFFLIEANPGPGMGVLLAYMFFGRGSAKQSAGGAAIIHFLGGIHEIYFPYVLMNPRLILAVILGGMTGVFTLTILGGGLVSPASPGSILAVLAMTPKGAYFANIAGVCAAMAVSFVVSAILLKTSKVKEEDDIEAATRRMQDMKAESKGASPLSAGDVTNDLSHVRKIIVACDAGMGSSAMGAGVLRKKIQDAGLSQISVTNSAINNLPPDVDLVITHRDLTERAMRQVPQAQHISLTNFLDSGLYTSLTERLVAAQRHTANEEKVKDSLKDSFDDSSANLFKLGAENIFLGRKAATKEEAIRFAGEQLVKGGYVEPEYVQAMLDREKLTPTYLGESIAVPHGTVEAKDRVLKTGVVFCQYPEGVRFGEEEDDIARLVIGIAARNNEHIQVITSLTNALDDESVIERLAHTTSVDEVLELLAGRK", "experiment": "cell-based or functional assay"}
{"binder": "FruB (fructose PTS IIA-FPr) fused to the T18 domain (pUT18-fruB) (natural protein, E. coli, UniProt P69811 1-376, looked up) MFQLSVQDIHPGEKAGDKEEAIRQVAAALVQAGNVAEGYVNGMLAREQQTSTFLGNGIAIPHGTTDTRDQVLKTGVQVFQFPEGVTWGDGQVAYVAIGIAASSDEHLGLLRQLTHVLSDDSVAEQLKSATTAEELRALLMGEKQSEQLKLDNEMLTLDIVASDLLTLQALNAARLKEAGAVDATFVTKAINEQPLNLGQGIWLSDSAEGNLRSAIAVSRAANAFDVDGETAAMLVSVAMNDDQPIAVLKRLADLLLDNKADRLLKADAATLLALLTSDDAPTDDVLSAEFVVRNEHGLHARPGTMLVNTIKQFNSDITVTNLDGTGKPANGRSLMKVVALGVKKGHRLRFTAQGADAEQALKAIGDAIAAGLGEGA", "values": [{"measurement": "PEP-dependent [14C]mannitol phosphorylation in vitro, activity ratio (Enzyme II plus FruB / Enzyme II alone); purified His-FruB 0.23 μM added to crude extract Cr.Ext-ΔfruBKA-pMAL (no FruA)", "value": 1.2, "unit": "ratio"}, {"measurement": "PEP-dependent [14C]mannitol phosphorylation in vitro, activity ratio (Enzyme II plus FruB / Enzyme II alone); purified His-FruB 0.23 μM added to membrane pellets MP-WT-pMAL (no fruA overexpression)", "value": 1.5, "unit": "ratio"}, {"measurement": "PEP-dependent [14C]mannitol phosphorylation in vitro, activity ratio (Enzyme II plus FruB / Enzyme II alone); purified His-FruB 0.23 μM added to membrane pellets MP-WT-pMAL-fruA (fruA overexpressed)", "value": 8.6, "unit": "ratio"}, {"measurement": "PEP-dependent [14C]mannitol phosphorylation in vitro, activity ratio (Enzyme II plus FruB / Enzyme II alone); purified His-FruB 0.23 μM added to membrane pellets MP-ΔfruBKA-pMAL (no FruA)", "value": 1.2, "unit": "ratio"}]}
